Source: US20120329854A1 (UNIVERSIT TSKLINIKUM FREIBURG, published 2012)

Key:
[1] = target: Protein-kinase-C-related kinase 1 (PRK1), endogenous in LNCaP cells (human, UniProt Q16512 2-942); experiment: Re-ChIP in LNCaP cells, first α-PKCβI then α-PRK1
Protocol: (§1) ChIP and Re-ChIP experiments were performed as described³. LNCaP cells were cultured for 15 min (ChIP) or 210 min (Re-ChIP) in the presence or absence of 1×10⁻⁸M R1881 as indicated. Three days before harvesting, cells were transfected with siRNA (control for PKCβI: 5′-[…]-3′(SEQ ID NO 3); PKCβI: 5′-[…]-3′ (SEQ ID NO 4) (FIG. 3 b, c, f-i); control for PRK1: 5′-[…]-3′ (SEQ ID NO 14); PRK1: 5′-[…]-3′ (SEQ ID NO: 15) (FIG. 3 d, e); Invitrogen) using RNAifect (Qiagen) following the manufacturer's instructions. Immunoprecipitation was performed with specific antibodies (α-AR #06-680 lot 33529 (Upstate Biotechnology), α-H3K4me1 #ab8895 lot 535654, α-H3T6ph #ab14102 lot 481643, α-H3 #ab1791 lot 172452, α-PKCβI S660ph #ab23513 lot 596904 (Abcam), α-PKCβI (C-16) #sc-209 lot 481643, (Santa Cruz), α-H3K4me2 #cs-035-100 lot A391001 (Diagenode), α-PRK1³, and α-LSD1²) on protein A-Sepharose 4B (GE-Healthcare). For PCR, 2 μl out of 50 μl DNA extract was used. PCR primers for FKBP5 (+351/+443), KLK2 (−343/−90), SCN1A, SCN2A, GAPDH, and U6 were described previously^{1, 2, 6, 11}.
It was recently shown by the inventors that PRK1 is a gatekeeper for regulation of AR target gene expression³. PRK1 controls multiple processes during AR-dependent transcription, such as transition from the RNA polymerase II pre-initiation to the initiation complex and demethylation at lysine 9 of histone H3 (H3K9)³. […]

[2] = target: LSD1, endogenous in LNCaP cells (human, UniProt O60341 1-852); experiment: Re-ChIP in LNCaP cells, first α-PKCβI then α-LSD1, KLK2 and FKBP5 promoters
Protocol: as §1
Therefore, it was investigated whether PKCβI is present at AR target genes and phosphorylates H3T6 in vivo. To analyse first whether PKCβI binds to promoters of AR target genes, LNCaP cells were subjected to chromatin immunoprecipitation (ChIP) in the presence or absence of the AR agonist R1881. […]

Chain of Protein-kinase-C-related kinase 1 (PRK1), endogenous in LNCaP cells (Q16512 2-942 limits assumed): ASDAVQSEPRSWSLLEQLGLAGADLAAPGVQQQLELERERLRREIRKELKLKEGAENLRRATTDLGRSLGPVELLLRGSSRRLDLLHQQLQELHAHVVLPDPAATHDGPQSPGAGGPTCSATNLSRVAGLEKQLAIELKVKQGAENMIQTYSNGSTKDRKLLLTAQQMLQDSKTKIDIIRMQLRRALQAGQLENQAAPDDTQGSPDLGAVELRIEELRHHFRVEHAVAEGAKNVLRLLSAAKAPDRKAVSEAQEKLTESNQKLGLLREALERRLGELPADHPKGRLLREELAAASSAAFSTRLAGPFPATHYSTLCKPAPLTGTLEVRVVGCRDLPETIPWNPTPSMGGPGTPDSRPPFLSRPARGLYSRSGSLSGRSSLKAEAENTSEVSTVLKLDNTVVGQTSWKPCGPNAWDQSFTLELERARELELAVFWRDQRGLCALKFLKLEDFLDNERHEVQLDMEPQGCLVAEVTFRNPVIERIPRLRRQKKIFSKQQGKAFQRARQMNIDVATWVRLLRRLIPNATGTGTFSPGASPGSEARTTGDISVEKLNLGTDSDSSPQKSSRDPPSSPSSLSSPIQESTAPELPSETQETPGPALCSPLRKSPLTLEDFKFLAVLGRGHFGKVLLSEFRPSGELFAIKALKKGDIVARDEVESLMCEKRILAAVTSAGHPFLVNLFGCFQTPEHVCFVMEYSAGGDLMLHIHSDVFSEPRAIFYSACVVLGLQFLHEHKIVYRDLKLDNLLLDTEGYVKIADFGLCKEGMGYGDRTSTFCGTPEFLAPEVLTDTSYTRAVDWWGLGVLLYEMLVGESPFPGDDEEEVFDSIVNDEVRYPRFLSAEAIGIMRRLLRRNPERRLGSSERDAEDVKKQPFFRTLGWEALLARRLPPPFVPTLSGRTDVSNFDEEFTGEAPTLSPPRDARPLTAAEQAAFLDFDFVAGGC

binding result [1]: binds
binding result [2]: binds
B1: protein kinase C beta 1 (PKCβI), endogenous in LNCaP cells (enzyme)
chain: not shown
notes: here the endogenous protein on chromatin of LNCaP human prostate cancer cells; also called protein kinase C βI; PKCβ1
